Patent US20020193568
Read-outs that look alike come from different tables or passages of the source.

What was measured:
[1] = target: LacI Pro320Ala Pro320Ala (Escherichia coli) (UniProt P03023); conditions: wild-type inducer responsivity
[2] = target: LacI Gln60Gly (Escherichia coli) (UniProt P03023)
[3] = target: lac repressor (LacI) wild-type (Escherichia coli) (UniProt P03023); conditions: no inducer; assay method not stated; cited from earlier work

| Substance | binding signal (fold higher affinity than wild-type) [1] | Kd ([2]; 1 mM IPTG, described as wild-type affinity under these conditions) [nM] | Kd ([2]; no inducer, assay method not stated, refers to Falcon and Matthews 1999, cited from earlier work) [nM] | Kd [3] [nM] |
| --- | --- | --- | --- | --- |
| lac operator DNA (LacO) | 10 | – | – | – |
| lac operator O1 (LacO) | – | > 100 | 0.004 | 0.012 |
